B1: SEQ ID NO: 203: Labilithrix luteola carboxylate reductase (protein, listed as Labilithrix luteola)
chain: MDISRFLDLRIAPRAVFDALEERKTRARFMVPTAPGSNEWRPVTWGAFAQEIRELALFLSTVLSSGDRGAVYAPNRVEWASAALAIQAAGGVIVPIYPASTPDQLSYVASHSDAKVIFVDTAPLLTRLFATWNSTPGVEKIVVLDDGIDVARVYESAREKGIPVPSLDAVERKVLSIGKARGIGAARDQEDPQAFERTMAAISLDQAGMMLYTSGTSGNPKGVPLTHRNVAVNGLDWLKCNYPLLEEGDVDILWLPMSHIFGFGEMCLGNTLGWTSYLADPATCLGRLPEVTPNIFMSVPSHWEKLALMAMHEPTPQARLDKFKAATGGKLRFCLSGGAGLKREVKDFFYSCGVLIVEGYGLTETSPTLTLNRPDAFRFDTVGKTLPSVELRLADDGEILARGASVFGGYHKDPEATREAFTEDGWFKTGDVGRFTDDGFLQIIDRKKDILVTAGGKNVPPANIEIRFQDDPLFAHVVVYGDAKKYLVAGVWLNEEAMSSQLASVPKDQQESARRDLVQKRIDHVNASLASYETIKKFSIIGEPLTVEAGLLTPSLKMRRKKVYEHFHGIFEGMFEDTQGKGAASSTASQGSGA
B2: SEQ ID NO: 204: Geotrichum candidum carboxylate reductase (protein, listed as Geotrichum candidum)
chain: MSATLNGTQFPPEVAARLRTYPIATDPSVNANTPLITDPVTVKPYKIGKPQAVPVPGSKVDGFSEVYRNAHCPDRLVTTVHPKITTVVEAFDACVSEYKNEKALGERVFDGKTKTWSKIYQYETYGTIAKRRLDIGKGISKVVQDVTGFDSRQTPYCLGLYGPNCSNWILTDLAAQTQSIPTVCLYDTLGPDSTRYIMTLTEMPAIVCSVAHIPFVLNIKDELPNLKVIIAMNPINNPDIVDKPGQSKKDVLTAWAKKSGVELFEFTEVEKIGRESGRGLHLPGPDTVLTINFTSGTTGNPKGVVISQANVLAGTIVARSQSTFNHRGSSGFLSFLPLAHIYERLTIHSVLTSGIPIGFFHGDVAELLDDIATYHPTIVAGVPRIWNRIAGAIRASTIEAPGIAGALSRKAYTTKLARLHETGDYHHPIWDRLWSNKIRTKTGFDQAKTFVTGSAPMARENIELIKVALGVEFVQGYGLTETMGGISVCSPGDNTAGSVGPVAITTEVKLRDLPTMNYSSSDKPFPRGEIMIRGPQVFMGYYKNEEATKGSIDEDGWFSSGDVGMIDDLGRLYVIDRVKNFFKLAQGEYVGPERIEALYQSSSGLVAQIFVEGNSLETYLVGIVGVNPEAYVQFLSHNFKMHIKPTDLEAIKKTFSRKDIRDTFLLELNVHAKDAQLKGYEKIKNVTLAIEPFSVENGTLTPTLKVKRPDAARLFKADVDAMYKEGPVEVKSKL
B3: SEQ ID NO: 202: Lichtheimia corymbifera carboxylate reductase (protein)
chain: MVTLTMDKQTIEIPNDVPGESPILRRTPELMDSFVPGINNIYDLFYNGYKLSRDQPCLGERPILDRTTGERAKQFEWQTYEQVAARVDNFGSGLKHVLQQIGESRPKQIPIGIWSVNRPEWHIVDWACAAHSLYVVALYDTLGPDTVEYVVNHAEIQVVVCTKEHVTDLLKLRSKLPQLKAIISFDTLEKEQSQALHAWAEEKDLLLVEFANVEQHGKENPVPHNPAQRSDLACIMYTSGTTGKSKGVMLTQGNFVAAVSGAIYNVKSSPADVGISYLPLGHIYGRVADAFTVAGGASLGFFSGKVDNLLEDMQILKPTLFNTVPRLLNRIYTGIVQSTLQAPGMMKKSTMSLIWNCSLGITDVGPKGALFRKAIATKLENLEQGKGTQHPVYDRLLFDKVRQVLGGRVRFINTGAAPLGKEVMQLLRVTLLADIRESYGATESCASLTMQIEGDPKPGCIGIPAPCNEMKLIDVPEMNYLTTDKPYARGEICVRGYNVSLGYYKDEEKTKEAFDKDGFYHTGDIGMIDERGTFMVIDRKKNIFKLSQGEYIAPEKIENIYARDILVSQIFVYGDSVQSCLVAIVVPDPIELGKLAQEKLPKLTSLSYEELCNNPEVHIAVLERMMENGKRAEMRGFEFVKAIHLDSKPFTVENNLLTPSLKLKRPEARKFFQKEIEQLYQKLSNSSAGSAARL
modifications: Lichtheimia corymbifera JMRC:FSU:9682
notes: Lichtheimia corymbifera carboxylate reductase
B4: SEQ ID NO: 92: Treponema primitia thioesterase (protein)
chain: MDVWKESYPVGFTAVDESEGLTLAAAFDYFQEAARRHAEVLGVGQEPMVQAGQGWVLSRISVLVERRPRQGELITVSTWPRGWEKLFALRDFDIRDESDKPIVRARSCWLIVNIEKRRPLRPQATMEKLPLNEGRDALPGGGVGLAPLENLLKAGDRVAAYSDIDYNGHVNNARYVQWVQDIADPTALVQAKTLRLDINYLSEVKIHEPIELWTEPLPAESDAVYTLGVEGRRNGGAVFRAELRIKD
modifications: Treponema primitia (strain ATCC BAA-887 / DSM 12427 / ZAS-2)
notes: Treponema primitia thioesterase
B5: SEQ ID NO: 93: Oceanimonas sp. thioesterase (protein)
chain: MLRILVLLLCLVSPTVLADTLLILGDSLSAGYRMRSDQAWPHLLAEQWRREGRQVTVINASVSGDTTQGGLQRLPPLLQRHQPSLVLLELGGNDGLRGLPPGLIERNLERLIALAGDAGARVILTDIQLPPNYGRRYLQQFEQVFSRLASQHQLPLLPFFVAPLMGEQGMMMDDGIHPTVKAQPLIARQVGEFLTPYLTP
modifications: Oceanimonas sp. (strain GK1)
notes: Oceanimonas sp. thioesterase
B6: SEQ ID NO: 89: Clostridium cellulolyticum thioesterase (protein, listed as Clostridium cellulolyticum)
chain: MEPLSIYKKNYHVDYGDADFYKRLKLSYLFNYFQNIAGLHSENTNVGIRKLQNDYGAAWVMTRMLMDINRMPECNEEISIETWPVEPKKKMIDRNFIVRDMDGSILASAISTWVILDMEKREMVRIDSVIPPQYPEFLKSKAIDRKFDKLKPSGQLQPAYKKLVGFSDIDINGHVNNAKYIDYILDCFTVEKHGEYRVKSIQINYVNEAVAGDIISLYKDTVDMDGSDKAVYITGINEVDGKVNFESHIRVQ
modifications: Clostridium cellulolyticum (strain ATCC 35319 / DSM 5812 / JCM 6584 / H10)
notes: Clostridium cellulolyticum thioesterase
B7: SEQ ID NO: 94: Paenibacillus sp. IHBB 10380 thioesterase (protein)
chain: MGNIWTEEHLIYSNEIDYKANCRLSNLLSLMQRAADGDVEHMGGTRDQMVAHHLGWMLTTIDLACERMPIFNETLKITTWNKGTKGPLWLRDFRIFDENNQEIAKACTLWALVDIDKRKVLRPSAYPFNINSNHEDSVGPVPDKLNISDEVELYHSYSITVRYSGIDSNGHLNNSRYADLCMDTLTQSELDTLSILGFHITYYHEVKSAEQIQVLRSDHLEGYIYFRGQSLEDERYFEACLHVG
modifications: Paenibacillus sp. IHBB 10380
notes: Paenibacillus sp; IHBB 10380 thioesterase
B8: SEQ ID NO: 60: Escherichia coli thioesterase (protein)
chain: MNTTLFRWPVRVYYEDTDAGGVVYHASYVAFYERARTEMLRHHHFSQQALMAERVAFVVRKMTVEYYAPARLDDMLEIQTEITSMRGTSLVFTQRIVNAENTLLNEAEVLVVCVDPLKMKPRALPKSIVAEFKQ
modifications: Escherichia coli (strain K12)
notes: Escherichia coli thioesterase

System in the first experiment: not listed separately
Description: In vivo carboxylate reductase screening, substrate consumption by LC-MS, heptanedioate. The experiment is classed as cell-based, Escherichia coli. The settings on record: 541 enzymes screened in vivo. The procedure:
To screen carboxylate reductases in vivo, […] T7- pUC expression vectors was co-transformed into T7 Express lysY/Iq with the phosphopantetheinyl transferase sfp from Bacillus subtilis on a T7-pCDF expression vector. Biological duplicates of the resulting strains were incubated in 0.5 mL of terrific broth containing either 1 g/L heptanedioate or 1 g/L monomethyl heptanedioate and supplemented with 0.4 mM IPTG in 96-well deep well plates. The plates were incubated for 30 h at 30° C. in a shaking incubator. The cells were then pelleted, and culture supernatants from the same strains in media containing either heptanedioate or monomethyl heptanedioate were combined. The combined supernatants were analyzed by LC-MS to determine the concentration of heptanedioate and monomethyl heptanedioate. Carboxylate reductase activity on heptanedioate or monomethyl heptanedioate was reflected by consumption of the respective substrate in the medium.
Take B1: the “substrate preference, heptanedioic acid to 7-oxoheptanoate” value is recorded as “preferred acting upon heptanedioic acid to form 7-oxoheptanoate”.
On the same count and under the same terms, the value for B2 was “preferred acting upon heptanedioic acid to form 7-oxoheptanoate”; that for B3 was “preferred acting upon heptanedioic acid to form 7-oxoheptanoate”.

For another experiment, the system named is heptanedioyl-ACP methyl ester. Description: Cell lysate in vitro thioesterase screen (DTNB, absorbance at 410 nm) on heptanedioyl-ACP methyl ester. The experiment is classed as biochemical. The settings on record: 0.33 mM acyl-ACP substrate, 30° C., 30 min.
As to B4, the “activity toward heptanedioyl-ACP methyl ester (hydrolysis)” value was “notable for their activity toward heptanedioyl-ACP methyl ester”.
Take B5: the “activity toward heptanedioyl-ACP methyl ester (hydrolysis)” value was “notable for their activity toward heptanedioyl-ACP methyl ester”.
The same measure, in the same setting: the result for B6 reads “notable for their activity toward heptanedioyl-ACP methyl ester”.
With B7, the “activity toward heptanedioyl-ACP methyl ester (hydrolysis)” value was “notable for their activity toward heptanedioyl-ACP methyl ester”.
B8: the “activity toward heptanedioyl-ACP methyl ester (hydrolysis)” value was “notable for their activity toward heptanedioyl-ACP methyl ester”.

Source of the values: patent publication US10801046B2, “Methods and materials for biosynthesizing multifunctional, multivariate molecules via carbon chain modification” (INVISTA NORTH AMERICA S.A.R.L., priority 2016, dated 2020).
